Test results from article PMC5021521, “Coordinated recruitment of Spir actin nucleators and myosin V motors to Rab11 vesicle membranes” (eLife, 2016).
Entries after “also recorded” stand apart in the source; their conditions may differ. Ends that are not written are not given here. * marks the point of attachment. 5FAM = O=C1OC2(c3ccc(O)cc3Oc3cc(O)ccc32)c2ccc(C(=O)*)cc21; Ahx = NCCCCCC(=O)O

Assays:
[1] = system: GST-Rab11a-Q70L; assay: GST-pulldown from HEK293 lysates; type: binding; details: N = 2
Experimental: HEK293 cells were co-transfected with expression vectors encoding Myc-Spir-2-FL, mStrawberry-FMN2-FH2-FSI, eGFP-MyoVa-D-FL and eGFP-MyoVa-D-Q1753R, respectively. 24 hr post transfection, cells were lysed in lysis buffer (25 mM Tris-HCl pH 7.4, 150 mM NaCl, 5 mM MgCl2, 10% (v/v) glycerol, 0.1% (v/v) Nonidet P-40, 1 mM PMSF, protease inhibitor cocktail) and centrifuged at 20,000 x g, 4°C, 20 min to remove insoluble debris. For GST-pulldown assays 65 µg GST-Rab11a-Q70L protein (25 µg GST control) was coupled to GSH-Sepharose 4B beads (1:1 suspension) for 1 hr, 4°C on a rotating wheel. Beads were washed twice with pulldown buffer (25 mM Tris-HCl pH 7.4, 150 mM NaCl, 5 mM MgCl2, 10% (v/v) glycerol, 0.1% (v/v) Nonidet P-40) and subsequently incubated with the cell lysates for 2 hr at 4°C on a rotating wheel. Beads were washed four times with pulldown buffer and bound proteins were eluted with 1x Laemmli buffer and denatured at 95°C for 10 min, then were analyzed by immunoblotting.

[2] = system: GFP-MyoVa-GTD; assay: Co-immunoprecipitation from HEK293 cells; type: binding, Mus musculus; details: anti-Myc co-IP, HEK293, immunoblot, N = 2
Experimental: (§1) HEK293 cells were transfected with expression vectors encoding Myc-tagged Spir proteins and GFP-tagged myosin Va and myosin Vb fragments. 48 hr post transfection, cells were lysed in lysis buffer (25 mM Tris-HCl pH 7.4, 150 mM NaCl, 5 mM MgCl2, 10% (v/v) glycerol, 0.1% (v/v) Nonidet P-40, 1 mM Phenylmethylsulfonylfluorid (PMSF; Sigma-Aldrich), protease inhibitor cocktail (complete mini, EDTA-free; Roche, Penzberg, Germany)) and centrifuged at 20,000 x g, 4°C, 20 min to remove insoluble debris. The clarified supernatant was incubated with 4 µg anti-c-Myc antibody (9E10, mouse monoclonal; Santa Cruz Biotechnology; RRID: AB_627268) for 1 hr on ice. Subsequently, 40 µl Protein G-Agarose beads (1:1 suspension; Roche) were added and incubated for 2 hr at 4°C on a rotating wheel. Beads were washed with pulldown buffer (25 mM Tris-HCl pH 7.4, 150 mM NaCl, 5 mM MgCl2, 10% (v/v) glycerol, 0.1% (v/v) Nonidet P-40). Bound proteins were eluted with 1x Laemmli buffer and denatured for 10 min at 95°C, then analyzed by immunoblotting.

[3] = system: GFP-MyoVb-GTD; assay: Co-immunoprecipitation from HEK293 cells; type: binding, Homo sapiens; details: anti-Myc co-IP, HEK293, immunoblot
Experimental: as §1

[4] = system: Spir-1; assay: GST-pulldown from mouse brain lysates; type: binding; details: 50 µg GST-fusion protein; immunoblot anti-Spir-1; N = 3
Experimental: Wild-type C57BL/6 (Jackson Laboratory, Bar Harbor, ME, USA) mice were killed by cervical dislocation. The brain was isolated immediately, washed in cold PBS and lysed in lysis buffer (25 mM Tris-HCl pH 7.4, 150 mM NaCl, 5 mM MgCl2, 10% (v/v) glycerol, 0.1% (v/v) Nonidet P-40, 0.1 M NaF, 1 mM Na3VO4, 1 mM PMSF, protease inhibitor cocktail) using a TissueRuptor (Qiagen). Following incubation on ice for 45 min, the lysate was centrifuged at 20,000 x g, 4°C until the supernatant was clear. Brain lysates were incubated with GSH-Sepharose 4B beads, loaded with 50 µg GST-fusion proteins as indicated, for 2.5 hr at 4°C on a rotating wheel. Beads were washed five times with pulldown buffer and bound proteins were eluted by 1x Laemmli buffer and denatured at 95°C for 10 min. Pulled proteins were analyzed by immunoblotting.

[5] = system: Rab11a-Q70L; assay: GST-pulldown with purified proteins, tripartite complex; type: binding, Homo sapiens; details: N = 3
Experimental: For GST-pulldown assays, 50 µg of GST-fusion protein was coupled to GSH-Sepharose 4B beads (1:1 suspension) for 1 hr at 4°C on a rotating wheel. Beads were washed twice with pulldown buffer and subsequently incubated with 20 µg His6-mCherry-fusion peptides for 2 hr, 4°C on a rotating wheel. In order to identify the tripartite Spir-2:MyoVa:Rab11a complex, 65 µg GST-Spir-2-GTBM-SB-FYVE was coupled to beads. Subsequently, beads were incubated with 40 µg MyoVa-GTD and 35 µg Rab11a-Q70L simultaneously for 2 hr. Beads were washed four times with pulldown buffer and bound proteins were eluted by 1x Laemmli buffer and denatured at 95°C for 10 min. Pulled proteins were analyzed by immunoblotting.

[6] = target: T1, GST-MyoVb-GTD (human, UniProt Q9ULV0 1467-1848); assay: pull-down + other fluorescence titration; quantitative GST-pulldown: increasing GST-MyoVa/b-GTD on beads, 100 nM His6-mCherry-Spir-2-linker, 1x PBS with 50 mM NaCl; mCherry fluorescence left in the supernatant at 20°C; single-site fit; details: both partners purified
T1 construct: myosin Vb globular tail domain, human, aa 1467-1848; also called GST-hs-MyoVb-GTD; pGex-4T1-NTEV-hs-MyoVb-GTD; source: E. coli Rosetta or Rosetta (DE3) pLysS, purified (GSH-Sepharose 4B, Superdex 200)
T1 sequence (looked up): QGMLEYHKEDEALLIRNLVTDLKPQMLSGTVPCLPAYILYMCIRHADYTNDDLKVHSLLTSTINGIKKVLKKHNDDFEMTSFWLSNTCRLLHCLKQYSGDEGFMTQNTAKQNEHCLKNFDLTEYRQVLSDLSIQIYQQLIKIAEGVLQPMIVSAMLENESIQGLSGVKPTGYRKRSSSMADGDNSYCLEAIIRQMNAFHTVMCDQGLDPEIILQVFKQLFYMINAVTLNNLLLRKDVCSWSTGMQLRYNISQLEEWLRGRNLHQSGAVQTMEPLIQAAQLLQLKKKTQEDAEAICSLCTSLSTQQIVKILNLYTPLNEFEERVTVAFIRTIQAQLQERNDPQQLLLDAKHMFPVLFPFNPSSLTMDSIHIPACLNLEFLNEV

[7] = target: GST-MyoVa-GTD (mouse); assay: as above
[8] = target: T2, MyoVc-GTD (human, aa 1350-1742) (human, UniProt Q9NQX4 1350-1742); assay: MST
T2 chain: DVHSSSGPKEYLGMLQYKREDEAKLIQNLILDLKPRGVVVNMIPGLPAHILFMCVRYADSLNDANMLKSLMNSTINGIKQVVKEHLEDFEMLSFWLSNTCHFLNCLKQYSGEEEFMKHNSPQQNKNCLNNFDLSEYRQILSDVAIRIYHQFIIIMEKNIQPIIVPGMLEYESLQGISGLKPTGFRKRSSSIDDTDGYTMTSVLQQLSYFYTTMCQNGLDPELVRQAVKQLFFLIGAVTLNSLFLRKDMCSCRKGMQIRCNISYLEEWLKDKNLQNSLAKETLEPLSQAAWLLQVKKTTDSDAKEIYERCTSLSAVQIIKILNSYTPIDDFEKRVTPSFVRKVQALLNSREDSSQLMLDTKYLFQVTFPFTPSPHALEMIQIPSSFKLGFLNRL

[9] = target: T3, MyoVc-GTD (human, aa 1350-1742) (human, UniProt Q9NQX4 1350-1742); assay: MST; 500 nM fluorescein-Spir-2 peptide, MyoVc-GTD 97 uM to 2.96 nM; 21.5°C; 50 mM Tris pH 8.0, 250 mM NaCl, 2 mM MgCl2, 2 mM TCEP, 5% glycerol; details: both partners purified
T3 construct: myosin Vc globular tail domain, human, residues 1350-1742; also called hs-MyoVc-GTD; source: E. coli BL21(DE3) or BL21-CodonPlus-RILP, purified (HisTrap, rTEV, Superdex 200); not shown: His6, N-terminal, cleaved
T3 sequence (looked up): T2 chain

[10] = target: T4, MyoVb-GTD (human, aa 1456-1848) (human, UniProt Q9ULV0 1456-1848); assay: fluorescence polarisation; fluorescence anisotropy; 1 uM fluorescein-Spir-2-401-427 titrated with MyoVa-GTD or MyoVb-GTD (50 nM-5 uM); 25°C; 100 mM Tris-HCl pH 8.0, 150 mM NaCl, 2 mM MgCl2, 2 mM TCEP, 5% glycerol; details: both partners purified
T4 construct: myosin Vb globular tail domain, human, residues 1456-1848; Produced as in Pylypenko et al., 2013; also called hs-MyoVb-GTD; source: E. coli BL21(DE3) or BL21-CodonPlus-RILP, purified (HisTrap, rTEV, Superdex G200); not shown: His6, N-terminal, cleaved
T4 sequence (looked up): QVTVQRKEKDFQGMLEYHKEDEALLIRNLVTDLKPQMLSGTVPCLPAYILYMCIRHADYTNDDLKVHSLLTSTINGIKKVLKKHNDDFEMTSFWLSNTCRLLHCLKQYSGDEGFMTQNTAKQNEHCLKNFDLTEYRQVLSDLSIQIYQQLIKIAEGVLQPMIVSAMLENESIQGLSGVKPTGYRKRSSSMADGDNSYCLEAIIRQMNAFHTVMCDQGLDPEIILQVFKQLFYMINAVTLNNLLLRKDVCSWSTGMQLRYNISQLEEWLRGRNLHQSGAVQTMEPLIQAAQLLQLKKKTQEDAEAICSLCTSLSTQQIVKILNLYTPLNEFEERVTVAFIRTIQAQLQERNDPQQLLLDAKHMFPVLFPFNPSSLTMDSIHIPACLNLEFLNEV

For “Spir-2: Myc-hs-Spir2 aa 2 - 714, full-length (QRPRPRVLLKAPTLAEMEEMNTSEEEE)”, the “pulldown by GST-Rab11a-Q70L in words” value ([1]; HEK293 lysates over-expressing Myc-Spir-2, Straw-FMN2-FH2-FSI and GFP-MyoVa-FL) was “able to pull down Myc-Spir-2”, the “pulldown by GST-Rab11a-Q70L in words, with Q1753R mutant MyoVa” value ([1]; HEK293 lysates with GFP-MyoVa-Q1753R in place of GFP-MyoVa-FL) was “Only faint” and the “co-precipitation / interaction with MyoVa-GTD in words” value [2] was “interacts”. The “co-precipitation / interaction with MyoVa-GTD in words” value ([2]; listed as Myc-Spir-2) was “co-precipitation”, the “co-precipitation / interaction with MyoVb-GTD in words” value [3] was “did interact with the GFP-MyoVb-GTD” and the “co-precipitation / interaction with MyoVb-GTD in words” value ([3]; listed as Myc-Spir-2) was “co-precipitation”.

With “GST-FMN2-eFSI: GST-mm-FMN2-eFSI aa 1523 - 1578, positive control ({GST}-EFSSDFKDAWKKENKLILQERVKEAEEVCRQKKGKSLYKVKPRHDSGIKAKISMKT) [reference compound]” the “pulldown of endogenous Spir-1 in words” value [4] was “able to pull endogenous Spir-1 from mouse brain lysates”.

B1: GST-Spir-2-GTBM-SB-FYVE: GST-hs-Spir2-GTBM-SB-FYVE aa 361 - 714 (protein)
chain: GEGWAARGFGSLPCILNACSGDAKSTSCINLSVTDAGGSAQRPRPRVLLKAPTLAEMEEMNTSEEEESPCGEVTLKRDRSFSEHDLAQLRSEVASGLQSATHPPGGTEPPRPRAGSAHVWRPGSRDQGTCPASVSDPSHPLLSNRGSSGDRPEASMTPDAKHLWLEFSHPVESLALTVEEVMDVRRVLVKAEMEKFLQNKELFSSLKKGKICCCCRAKFPLFSWPPSCLFCKRAVCTSCSIKMKMPSKKFGHIPVYTLGFESPQRVSAAKTAPIQRRDIFQSLQGPQWQSVEEAFPHIYSHGCVLKDVCSECTSFVADVVRSSRKSVDVLNTTPRRSRQTQSLYIPNTRTLDFK
modifications: left off: GST, end not stated, kept
B1 was tested, and the “pulldown of Rab11a-Q70L in words” value ([5]; in the presence of MyoVa-GTD) was “allows GST-Spir-2-GTBM-SB-FYVE to pull Rab11a-Q70L” and the “pulldown of Rab11a-Q70L in words” value ([5]; without MyoVa-GTD) was “does not interact with Rab11a-Q70L; also recorded: does not pull down Rab11a-Q70L”.

B2: His6-mCherry-Spir-2-linker (domain or fragment, human, UniProt Q8WWL2 361-519, looked up)
chain: GEGWAARGFGSLPCILNACSGDAKSTSCINLSVTDAGGSAQRPRPRVLLKAPTLAEMEEMNTSEEEESPCGEVTLKRDRSFSEHDLAQLRSEVASGLQSATHPPGGTEPPRPRAGSAHVWRPGSRDQGTCPASVSDPSHPLLSNRGSSGDRPEASMTPD
notes: Spir-2 central linker region, human, aa 361-519; also called His-mCherry-Spir2-linker; His6-mCherry-hs-Spir2-linker; source: E. coli (Rosetta or Rosetta (DE3) pLysS; BL21(DE3)), purified (Ni-NTA, Superdex 200); not shown: His6, N-terminal, kept; mCherry, N-terminal, kept
Molecule B2 has a Kd [6] of roughly 377 nM and a Kd [7] of 728 nM.

B3: GST-MyoVb-GTD: GST-hs-MyoVb-GTD aa 1467 - 1848 (protein)
chain: T1 sequence (looked up)
modifications: left off: GST, end not stated, kept
In the case of B3, the “pulldown of endogenous Spir-1 in words” value [4] is reported as “able to pull endogenous Spir-1 from mouse brain lysates”.

B4: Fluorescein-Spir-2-GTBM peptide (peptide)
peptide: {5FAM-Ahx}-QRPRPRVLLKAPTLAEMEEMNTSEEEE
notes: also called Fluorescein-Spir2 peptide; fluorescein labeled Spir-2-401-427 peptide; source: synthetic peptide, bought: GenScript
With B4 the Kd [8] was 2880 nM, the binding result [9] was “binds” and the binding result [10] was “binds”.
